According to a protein production outcome set (Wang et al. 2014):

Test: label from the status in PepcDB records
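Also: failed if final PepcDB status was selected cloned or expressed and not failed if soluble or beyond.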

Row | Sequence | protein production
1 | MNIAPLKVSLLSLALLLSPVASLPAHAACTANLALQPASSLPALGGRLVYHSYMEYGDGSSNLYLHDFKSKSTRQLNQPGWNIEDPMNAHFSPDGRYLTFMGRQNGAWHVFAWAIGGTQAPSNLTAAIGGRNEDPKFSFDGRQVVLKHEGDIRLATLVFNGDGSVGVSAWKAVTGDGWSTEESMPFLTPSGKYVVYATGAGDSLRVVRRNLENGQVCALATPAAGGRDYYPVVRDYTAYFLSRTQPAGNDQLAMVVPNSPPGTPAILPLNHCQGDNSDAAPVNEDYLIFSSTSFDPTYSLLLGDIAAARVWRLDPAQINLPDGRQKLGASYTAAR | failed
2 | MTVEYTASDLATYQNEVNEQIAKNKAHLESLTHPGSKVTFPIDQDISATPQNPNLKVFFFDIDNCLYKSSTRIHDLMQQSILRFFQTHLKLSPEDAHVLNNSYYKEYGLAIRGLVMFHKVNALEYNRLVDDSLPLQDILKPDIPLRNMLLRLRQSGKIDKLWLFTNAYKNHAIRCLRLLGIADLFDGLTYCDYSRTDTLVCKPHVKAFEKAMKESGLARYENAYFIDDSGKNIETGIKLGMKTCIHLVENEVNEILGQTPEGAIVISDILELPHVVSDLF | not failed
3 | MKTLFWRTLVVIFIILGVIGAILPGMPTTVFLILAAWAASKGWPEMDEWLLNHPKYGPTLRDWRAHGTVPRKAKWIASIMMLISAIMMLFTNAPFWVKVFTDTTMLIVAIWLWLRPEPVKLPLESPTLHQNTEDEHV | failed
4 | MKKVLVGLLAIMVMIIASGYTYYKMNYGGESYYVQILVNGEREETTADDHTPMVIYHYKLDSFNSKGDKKLVKFMASHNLRNQAYLELTYNKHKGVTNWNEVQEKEIPKPALKELQSLENLEHHHHHH | failed
5 | MKILVFGGTRFFGKKLVERLVSEGHDVTIGTRGKTEDNFGDTVKRVVLNRESRDALFQLAKEDWDVIYDNICFSPKEALYAVDAFKGKVKRYIYTSSLSVYSQKGRALVEADFNPEHYEIVIGDKEDFDYGEGKRLAEAVFFQKASFPVVAVRFPIVLGLDDYTKRLHFHINHIKNHQEIGISNGQAEIGFITSDEAAHFLEWVGVESDLTGPVNATSNGTYALNGFIKMLEEKIGELALVEEVTDDVDDSPFGIEKTYYLDNAKATEAGFVFNDLKVWLPALVTDILKENLEHHHHHH | failed
6 | MSPIDEFTYIKQNKIVYDSNSLIQLYFPIMGSDAMALYDYFVHFFDDGIRRHKFSEVLNHLQYGMPRFQDALVMLTALDLLTVYQATGTYLVKLNQAMSNELFLSNPIYRRLLEKRIGEVAVAELDMKIPKNARDISKKFTDVFSDLGQPKQEVNRSKNVFDLESFKRLMMRDGLRFNNEKDDVLGIYSVSELYHLNWYDTYQLAKQTAINGMIAPQRMKVQQNEGQHIKDNQSFTNNEKVILRESKNDSALVFLEKIKRSRKAVTTSGEKTLLEDLAKMNFLDEVINVMVLYTLNKTKSANLNKAYIMKVANDFAFQNVMTAEDAVLKIRDFSDQKVRTKTETKKKQSNVPEWSNPDYKDEVSPEKEIELEQFKTDALKRLERLGKD | not failed
7 | MFYGRYDYPTGKFLWGNLRYQRVSEYNLQTFLNMKNSKLREEQIMSAKRDYYEVLGVSRDADKNTIKKAYRKLAKKYHPDTNQGNAQAAERFKEATEAYNILSDPEKKKMYDQFGHAAFDGSGAAGGAYGGAYSRNGGGTYQYAGPDGTFHEYHFEGNGDMDDFLKNIFGGSFGGFGGATRSSSKGSRSGFSGSGFGRSGFGGTGFSGSGFGGSGFSGSGFGESGSYGNYSQGGADVTAEITVGFDEAAFGCEKVIHLTENNGKAVGKALKVKIPAGIDTGKSIRLRGKGNPGINGGKAGDLLLKVKVASKPGYERKGMDVYTTVRVPFTTAVLGGEAKVETLHGNVLCKINPGTQSGTKIRLRGKGIVSMKDKNQHGDQYVTVQIDVPGNLSEEAKRKLREFEVACKKGQQGVA | failed
8 | MPVCILLLRFRDDVHNERFYTLVGIFIVGALCLMILGGTFFYIEYKRAQKQTFVMFFKGSLKGLVTTAPVTYRGVKIGEVKVIEITENKEHSKVLIPVYVQFFVERTYGFSQDPIHLLIDNGYVANITKPNLLTGVAEIELIKPTPAVKYKQTYYHSYPVFPTHNSAEKYTSMEEAFEAAKKAFEDVSELVRSKEIQDTLEAIQKVSENLGQLASSLNQDVPSVVAYLNQSLKQITSAAYSTQNLTDYLSRYPESLLRGKRLEHHHHHH | failed
9 | TYWDVDFPRLDQRDSTLTEADHIANVRAALLEAVEMRMVADVPVGCYLSGGIDSCSILGLASAVSQGPVKAFTIGFDDARYDETPIAAEMAEATGAEQDVMRLSGRELYGHMEQTLWHTERTIYNTLAVAKYLMSRHVNSVDYKVVMTGEGSDELFGGYPAFRRDMFLHGLEDLPQSDRQDWESLLQTNNSLVQGAMLAADQVDDPDLDAVVGFTPSCLQPWLACAPLVPDLLADEHRQALVEYSPGKAIAEQLNPQQLDGRHALDKAQYVWIKTMLEGQILTWGGDRVDMANSMEARPAFLDHHLAAAAVQVPPELRIKGKTEKYVLREAMAGLLPEVLYKREKFAFMAPPAHTEPEKWAQMKQLADDYLSDEAIDAAGLLSKEGVRALFARHDDPATTDAERVQMDAVINHLLG | failed
10 | MALPLSQLPQEIIREVRGRKGLAFLAFVIVSFAVLGAGFVWPYKYQSETIIFVDDRNIIAPLMEGRAVATEINDRTSAAKELLMSRSLIEKVALDPEIYPDAPSDPAALEYRIANIRSGLSVRPRGDSYFSIGFSSTSQMEAFRVAQKLGQVFIEETKDRKRAESRNAYDFIDKQVKSYEQQLAQAENRLKEFLSENTDGTEQEANARMAQLRNQLELAELEKKELETRAASLQSQLGGIRPTITQGRTEDAYRERIRILEERLDSLRLQYHDTYPDIVILREQLAELRKQRDQAAERPTDVSSLEGEEAVNPLYQELRANLSTTRADMATVDTRITSLSRLLEQQAKRMERIQANKAQYSELTRDMEVNREIYDDLLKRREKARVSMHLDIEGQGLNYRINETAQFPRTPSGPQFSMFAAAGLFLGLAAPFGAVAGLLQVDPRIRARKQLEEDIGLPVLVEIPEVRTPYEKRRDRKVTLLIGIFAVLTVTVYVTIVVLAQMGVI | failed
11 | MKKYLDKLQNMPIGISGTCLAFITLSNSWNLKGINYFKPIAIFLAVCMLSLMILRLIRFPKVMYEELKNPVTGTFYPTMGMVVWLVSGFFYPYFPVVCSWLWIAAVIYHYGIVIFYTIIRIKERKFENIMPTCFIVYTGMITGSVASKGMDGVIPQIPQIAHFMLMFGFIFYTILLPLVLYIVFKSEILDDHKLPTVGIICSPAPLGVVGILTIEPNPNPYMLAWLIITGLILLVVVYGYILKLFKEGFKPSYAAFTFPLAIATLSAFKLSTYFTGLGYAKMANLFKFLGDVEIFIATYVIFFMLLNFLNMFFKAISPKLGEYVEEEEELIGGTLYSK | failed
12 | MTCANCATDVIYMAERQNERDDRQKLKNISFAKKILLGLSMYVPSSTFKKIVLKLLGAHIGKNVYFGPGSLVLSNDYSSVYIENNVFVAPGVLINVNNFTVGENSHLGYQCLMVGESLKIGSRCNISNRTFIECSYSPILIEDDVTIGGCAMVSTHDGSYRQVYGLEMKAAPIYIRSKAFIGNNAIILPGIEIGRKVIVGAGAVVTKNAVANSVICGVPADKIRTMEVSNENITGN | failed
13 | PTSSTTATLVMGDALAVALLKARGFTAEDFALSHPGGALGRKLLLRVSDIMHTGDEIPHVNKHATLRDALLEITRKNLGMTVICDESMKIDGIFTDGDLRRVFDMGGDMRQLGIAEVMTPGGIRVRPGILAVDALNLMQSRHITSVLVADGDQLLGVLHMHDLLRA | failed
14 | MVIDLAVDCQRQAAVLRQQRLRTARRVDDGQTLVHQDGTGIDVHAAPVRPAMALPLRTFQGLPAQGLQVVAGLQAEDTEDGTHGNTPGKVVMGGRRINTVQDITHKKNPHRPMRVFWKLGVCVGTSPSRRPASAAHDYSRADCCGDWRWRRWTETMSWADRIPLSAATQLLRWQPSRAGKPGIPRPPRDRGRVARIMSPPSSEASAMTPRIGRLAFAALIPLVLLQGCSTTAPRTEPAKLRQLEQTAADGSFDSIWEVASQLESRNDPRAIGWYERAAATTPWTFRNALAELALGRIWASGTLTHADSPYIDQRAALRASPRKGERWYLAAAMHGNPYAIRELAKFHRERGEAAAALRWDLRVAIYERAASGPSGLPAAIAPRDGDIHPLVRDIQRRARGGDAEAQVDLGALYEKGMGGMNRDGAEALRWYRRAADQGNVYGQYFYALLLGRGSSGVTRDEETAAIWFAKASAQRFYIADASHWREAIKPPFWTFD | failed
15 | MNDQVLRTQTDRRQLQQIIAGLTEGVILIEPDQRILWANEAALAMHGVDSLEGLGADTGEYRERFRLRYRNNHPLQEGQYPAERLVAGECFSDVVVEVFPAADEDTRWVHRVRGLVLTTPEDKPDCLVLILHDAT | not failed
